Results taken from paper PMC5231900 (Molecular Biology of the Cell, 2017).

Key:
Test in all cases: pull-down
[1] = biological target: wild-type Vps39-Vps11 complex (yeast, UniProt Q07468;P12868)
[2] = biological target: Vps41-Vps3-class C hybrid complex (yeast, UniProt P38959;P23643;P20795;P12868;Q03308;P27801)
[3] = biological target: wild-type HOPS complex purified via Vps39-TAP (yeast, UniProt Q07468;P38959;P20795;P12868;Q03308;P27801)
[4] = biological target: wild-type HOPS complex purified via Vps41-TAP (yeast, UniProt P38959;Q07468;P20795;P12868;Q03308;P27801)

Measured: binding result

wild-type Vps39-Vps11 complex, sequence (Q07468 whole entry, chain 1 of 2): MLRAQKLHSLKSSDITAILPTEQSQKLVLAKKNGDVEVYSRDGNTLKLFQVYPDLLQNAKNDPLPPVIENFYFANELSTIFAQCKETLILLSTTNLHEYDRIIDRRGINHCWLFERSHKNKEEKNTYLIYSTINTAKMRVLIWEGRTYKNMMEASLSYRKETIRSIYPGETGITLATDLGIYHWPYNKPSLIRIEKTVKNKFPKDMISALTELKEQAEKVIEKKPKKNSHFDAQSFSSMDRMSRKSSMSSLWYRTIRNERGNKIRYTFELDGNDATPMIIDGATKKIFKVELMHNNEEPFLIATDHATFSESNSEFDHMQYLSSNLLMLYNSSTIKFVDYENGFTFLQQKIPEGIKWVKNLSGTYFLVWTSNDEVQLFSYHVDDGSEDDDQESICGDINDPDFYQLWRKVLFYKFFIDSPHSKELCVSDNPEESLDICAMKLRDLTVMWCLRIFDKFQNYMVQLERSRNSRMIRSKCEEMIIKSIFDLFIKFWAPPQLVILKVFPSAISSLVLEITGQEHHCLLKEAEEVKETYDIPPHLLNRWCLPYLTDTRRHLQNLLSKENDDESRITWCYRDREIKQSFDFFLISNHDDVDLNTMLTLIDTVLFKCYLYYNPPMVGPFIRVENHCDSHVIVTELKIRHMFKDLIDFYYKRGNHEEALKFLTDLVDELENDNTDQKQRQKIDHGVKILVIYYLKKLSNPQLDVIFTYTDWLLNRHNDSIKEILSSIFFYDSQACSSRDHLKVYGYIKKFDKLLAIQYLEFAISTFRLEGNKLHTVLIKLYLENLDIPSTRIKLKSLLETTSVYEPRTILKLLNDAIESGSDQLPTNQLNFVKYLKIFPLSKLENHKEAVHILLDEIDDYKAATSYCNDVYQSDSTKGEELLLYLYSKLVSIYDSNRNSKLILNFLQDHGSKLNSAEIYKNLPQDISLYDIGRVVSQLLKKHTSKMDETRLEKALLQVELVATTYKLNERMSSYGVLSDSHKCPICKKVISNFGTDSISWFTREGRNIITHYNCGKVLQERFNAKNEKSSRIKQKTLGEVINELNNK
wild-type Vps39-Vps11 complex, sequence (P12868 whole entry, chain 2 of 2): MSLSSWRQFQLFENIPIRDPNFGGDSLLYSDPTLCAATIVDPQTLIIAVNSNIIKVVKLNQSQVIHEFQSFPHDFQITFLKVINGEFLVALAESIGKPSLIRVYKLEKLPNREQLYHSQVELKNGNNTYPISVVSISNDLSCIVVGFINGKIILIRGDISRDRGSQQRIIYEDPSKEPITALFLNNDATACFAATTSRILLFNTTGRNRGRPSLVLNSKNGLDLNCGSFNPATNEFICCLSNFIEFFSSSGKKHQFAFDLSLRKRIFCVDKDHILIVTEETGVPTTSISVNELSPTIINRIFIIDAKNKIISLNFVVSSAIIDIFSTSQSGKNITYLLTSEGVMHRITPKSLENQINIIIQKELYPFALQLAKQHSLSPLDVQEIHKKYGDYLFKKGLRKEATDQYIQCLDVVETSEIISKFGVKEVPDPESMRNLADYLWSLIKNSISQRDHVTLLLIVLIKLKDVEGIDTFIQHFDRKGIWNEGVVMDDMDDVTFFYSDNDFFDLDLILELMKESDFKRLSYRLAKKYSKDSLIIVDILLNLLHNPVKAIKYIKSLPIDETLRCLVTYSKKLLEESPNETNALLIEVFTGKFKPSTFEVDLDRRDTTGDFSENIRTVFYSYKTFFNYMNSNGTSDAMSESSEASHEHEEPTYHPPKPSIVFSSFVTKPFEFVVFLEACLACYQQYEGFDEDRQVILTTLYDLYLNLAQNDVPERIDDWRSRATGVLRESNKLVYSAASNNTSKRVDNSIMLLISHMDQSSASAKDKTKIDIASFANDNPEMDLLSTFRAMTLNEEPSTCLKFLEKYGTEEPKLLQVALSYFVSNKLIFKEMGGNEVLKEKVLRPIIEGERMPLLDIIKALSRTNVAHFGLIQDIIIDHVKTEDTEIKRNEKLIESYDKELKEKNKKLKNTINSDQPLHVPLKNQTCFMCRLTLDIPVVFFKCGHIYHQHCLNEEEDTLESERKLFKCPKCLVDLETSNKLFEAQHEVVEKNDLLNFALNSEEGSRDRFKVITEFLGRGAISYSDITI

B1: GST-Ypt7 (natural protein)
chain: MSSRKKNILKVIILGDSGVGKTSLMHRYVNDKYSQQYKATIGADFLTKEVTVDGDKVATMQVWDTAGQERFQSLGVAFYRGADCCVLVYDVTNASSFENIKSWRDEFLVHANVNSPETFPFVILGNKIDAEESKKIVSEKSAQELAKSLGDIPLFLTSAKNAINVDTAFEEIARSALQQNQADTEAFEDDYNDAINIRLDGENNSCSC
binds: [1] | [2] | [3] | [4]
